Measured values as given in patent US20120082667A1 (IMMUNAS PHARMA, published 2012).

Tests used:
synthesized A beta1-42 [1] = target: T1, synthesized A beta1-42 (UniProt P05067 672-713); experiment: dot blot, synthesized A beta1-42 spotted, hybridoma supernatant
T1 construct: domain: A beta1-42; spotted in the dot blot as the second of the two types of oligomers; also called A beta42 oligomer
Description: (§1) Dot blot analysis was carried out for hybridomas that gave positive result for primary screening. […] The membrane was blocked with Tris Buffer containing 5% low-fat milk and 0.05% Tween-20, and reacted with hybridoma culture supernatants and detected with chemiluminescence kit (ECL) after reacting with HRP-conjugated anti-mouse IgG antibody.

synthesized A beta1-42 [2] = target: T1, synthesized A beta1-42; experiment: dot blot: peptide spotted on nitrocellulose (0.1 micro g/dot), hybridoma culture supernatant, HRP anti-mouse IgG, ECL
Description: as §1

[3] = target: T2, A beta oligomer prepared from synthetic A beta1-40 (HCl form), 0.1 mg/ml in PBS, incubated at 37 degrees C … (UniProt P05067 672-711); experiment: as above
T2 construct: domain: A beta1-40; non-fibrous assembly of A beta1-40; also called A beta1-40 oligomer; A beta40 oligomer
Description: as §1

[4] = target: T3, A beta monomer prepared from synthetic A beta1-40 (TFA form), 0.1 mg/ml in PBS (UniProt P05067 672-711); experiment: as above
T3 construct: domain: A beta1-40; also called A beta1-40 monomer; A beta40 monomer
Description: as §1

Row | binding result (synthesized A beta1-42 [1]) | binding result (synthesized A beta1-42 [2]) | binding result [3] | binding result [4] | Binder
1 | binds |  |  |  | AL-204 antibody (antibody, V domains shown) VH: EVQLVESGGGLVKPGGSLKLSCAASGFTFSDYYMYWVRQTPEKRLEWVATISDGGSYTYYPDSVKGRFTISRDNAKNNLYLQMSSLKSEDTAMYYCARAKYYRYDGGGAYAMDYWGQGTSVTVSS VL: NIMMTQSPSSLAVSAGEKVTMSCKSSQSVLYSSNQKNYLAWYQQKPGQSPKLLIYWASTRESGVPDRFTGSGSGTDFTLTISSVQAEDLAVYYCHQYLSSYTFGGGTKLEIK
2 |  | binds | binds | binds | AL-221 antibody (antibody, IgG2b, V domains shown) VH: QVTLKESGPGILKPSQTLSLTCSFSGFSLSTSGMGVGWIRQPSGKGLEWLAHIWWDDDKYYNPSLKSQLTISKDTSRNQVFLKITSVDTADTATYYCARRSLSRDYFDYWGQGTTLTVSS VL: DVLMTQTPLSLPVSLGDQASISCRSSQSIVHSNGNTYLEWYLQKPGQSPKLLIYKVSNRFSGVPDRFSGSGSGTDFTLKISRVEAEDLGVYYCFQGSHVPLTFGAGTKLELK
